This note sets out measurements from patent US20210403601A1 (FAPON BIOTECH, published 2021).

The target in the assay is T1, Taq DNA polymerase (Thermus aquaticus, UniProt P19821 1-832).
T1 construct: also called Taq enzyme; Taq DNA enzyme
The experiment in a line: AMC sensor, antibody immobilised.

T1 sequence (P19821 whole entry): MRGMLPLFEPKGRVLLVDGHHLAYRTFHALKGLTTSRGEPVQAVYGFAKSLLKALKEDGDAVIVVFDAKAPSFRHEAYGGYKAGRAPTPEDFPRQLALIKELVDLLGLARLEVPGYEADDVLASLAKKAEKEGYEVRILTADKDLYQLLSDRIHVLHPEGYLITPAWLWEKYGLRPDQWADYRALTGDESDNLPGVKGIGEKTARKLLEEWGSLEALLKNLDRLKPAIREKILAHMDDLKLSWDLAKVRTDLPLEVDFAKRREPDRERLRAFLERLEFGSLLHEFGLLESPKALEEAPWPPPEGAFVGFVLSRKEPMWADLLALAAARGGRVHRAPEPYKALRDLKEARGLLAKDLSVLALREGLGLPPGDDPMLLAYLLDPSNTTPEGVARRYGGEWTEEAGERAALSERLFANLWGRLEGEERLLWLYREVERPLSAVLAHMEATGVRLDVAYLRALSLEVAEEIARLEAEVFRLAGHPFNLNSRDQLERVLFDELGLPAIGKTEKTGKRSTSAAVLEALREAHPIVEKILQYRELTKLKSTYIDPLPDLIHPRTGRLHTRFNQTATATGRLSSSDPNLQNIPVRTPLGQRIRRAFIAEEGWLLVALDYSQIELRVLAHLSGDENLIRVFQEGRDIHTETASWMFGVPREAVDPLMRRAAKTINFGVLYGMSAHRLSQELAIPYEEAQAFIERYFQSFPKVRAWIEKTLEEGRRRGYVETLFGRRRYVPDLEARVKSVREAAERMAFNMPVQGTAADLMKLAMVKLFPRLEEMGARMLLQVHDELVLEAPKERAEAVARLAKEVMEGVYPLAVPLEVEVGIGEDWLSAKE

B1: Mutation 1-1 (antibody, V domains shown)
VH: QVQLQQPGAELVKPGASVRLSCQTSVDTFTTYYIYWVKQRPGEGLEWIGGINPTSNPVFNEKFKSKATLTVDTSSSTAYMQLSSLTSVDSAVYYCTRSIVRRGYYFDYWGQGTALTVSS
VL: DIQMTQTTSSLSASLGDRVTISCRASQDINNYVNWYQQKPDGTIKLLIYYTSRLQSGVPSRFSGSGSGTDYSLTIANLEQEDIATYFCQQDDTIPITFGAGTKVELKR
notes: Mutation 1 background; CDRs built
One may read the Kd as a measure of binding affinity in units of concentration. A higher Kd goes with lower affinity. Usually koff stands for the rate constant with which the complex falls apart. As a reminder, the kon is the second-order rate constant of association. High values mean faster complex formation, low ones slower complex formation. In turn, B1 showed a Kd of 491 pM, a koff of 1.58e-05 s⁻¹ and a kon of 32200 M⁻¹ s⁻¹.

B2: Mutation 1-20 (antibody, V domains shown)
VH: QVQLQQPGAELVKPGASVRLSCQTSVETFTTYYIYWVKQRPGEGLEWIGGLNPTSNPVFNEKFKSKATLTVDTSSSTAYMQLSSLTSVDSAVYYCTRSIIRRGYYFDYWGQGTALTVSS
VL: DIQMTQTTSSLSASLGDRVTISCRASQDIQNYLNWYQQKPDGTIKLLIYYTSRLNSGIPSRFSGSGSGTDYSLTIANLEQEDIATYFCQQDDTIPLTFGAGTKVELKR
notes: as for B1
The molecule B2 came in with a dissociation constant (Kd) of 728 pM, a koff of 6.43e-05 s⁻¹ and an on-rate constant (kon) of 88300 M⁻¹ s⁻¹.

B3: Mutation 1-17 (antibody, V domains shown)
VH: QVQLQQPGAELVKPGASVRLSCQTSVNTFTTYYIYWVKQRPGEGLEWIGGLNPTSGGPVFNEKFKSKATLTVDTSSSTAYMQLSSLTSVDSAVYYCTRSLIRRGYYFDYWGQGTALTVSS
VL: DIQMTQTTSSLSASLGDRVTISCRASQDINNYINWYQQKPDGTIKLLIYYTSRLNSGLPSRFSGSGSGTDYSLTIANLEQEDIATYFCQQDDTLPLTFGAGTKVELKR
notes: as for B1
Turning to B3, binding was put at a Kd of 398 pM, the off-rate constant (koff) was 1.36e-05 s⁻¹ and the on-rate (kon) came out at 34000 M⁻¹ s⁻¹.

B4: Mutation 1-47 (antibody, V domains shown)
VH: QVQLQQPGAELVKPGASVRLSCQTSVDTFTTYYIYWVKQRPGEGLEWIGGVNPTSNPVFNEKFKSKATLTVDTSSSTAYMQLSSLTSVDSAVYYCTRSIIRRGYYFDYWGQGTALTVSS
VL: DIQMTQTTSSLSASLGDRVTISCRASQDINNYINWYQQKPDGTIKLLIYYTSRLNSGLPSRFSGSGSGTDYSLTIANLEQEDIATYFCQQDDTIPVTFGAGTKVELKR
notes: as for B1
B4 registered a Kd of 739 pM, an off-rate (koff) of 4.67e-05 s⁻¹ and a kon of 63200 M⁻¹ s⁻¹.

B5: Mutation 1-42 (antibody, V domains shown)
VH: QVQLQQPGAELVKPGASVRLSCQTSVETFSTYYIYWVKQRPGEGLEWIGGINPTSNPVFNEKFKSKATLTVDTSSSTAYMQLSSLTSVDSAVYYCTRSLLRRGYYFDYWGQGTALTVSS
VL: DIQMTQTTSSLSASLGDRVTISCRASQDIQNYVNWYQQKPDGTIKLLIYYTSRLQSGLPSRFSGSGSGTDYSLTIANLEQEDIATYFCQQDDTLPLTFGAGTKVELKR
notes: as for B1
The molecule B5 came in with a Kd of 803 pM, a koff of 3.75e-05 s⁻¹ and a kon of 46700 M⁻¹ s⁻¹.

B6: Mutation 1-54 (antibody, V domains shown)
VH: QVQLQQPGAELVKPGASVRLSCQTSVNTFTTYYIYWVKQRPGEGLEWIGGLNPTSNPVFNEKFKSKATLTVDTSSSTAYMQLSSLTSVDSAVYYCTRSILRRGYYFDYWGQGTALTVSS
VL: DIQMTQTTSSLSASLGDRVTISCRASQDIQNYVNWYQQKPDGTIKLLIYYTSRLNSGVPSRFSGSGSGTDYSLTIANLEQEDIATYFCQQDDTIPVTFGAGTKVELKR
notes: as for B1
B6 registered a Kd of 273 pM, an off-rate constant (koff) of 1.01e-05 s⁻¹ and a kon of 37200 M⁻¹ s⁻¹.

B7: Mutation 1-4 (antibody, V domains shown)
VH: QVQLQQPGAELVKPGASVRLSCQTSVNTFSTYYIYWVKQRPGEGLEWIGGINPTSGGPVFNEKFKSKATLTVDTSSSTAYMQLSSLTSVDSAVYYCTRSVVRRGYYFDYWGQGTALTVSS
VL: DIQMTQTTSSLSASLGDRVTISCRASQDIQNYINWYQQKPDGTIKLLIYYTSRLHSGVPSRFSGSGSGTDYSLTIANLEQEDIATYFCQQDDTVPITFGAGTKVELKR
notes: as for B1
For B7, the affinity, expressed as Kd, was 719 pM; the koff stood at 2.75e-05 s⁻¹; the kon came to 38200 M⁻¹ s⁻¹.

B8: Mutation 1-48 (antibody, V domains shown)
VH: QVQLQQPGAELVKPGASVRLSCQTSVETFSTYYIYWVKQRPGEGLEWIGGINPTSNPVFNEKFKSKATLTVDTSSSTAYMQLSSLTSVDSAVYYCTRSVLRRGYYFDYWGQGTALTVSS
VL: DIQMTQTTSSLSASLGDRVTISCRASQDIQNYVNWYQQKPDGTIKLLIYYTSRLQSGVPSRFSGSGSGTDYSLTIANLEQEDIATYFCQQDDTVPLTFGAGTKVELKR
notes: as for B1
As to B8, the affinity, expressed as Kd, was 384 pM; the koff came to 3.72e-05 s⁻¹; the on-rate (kon) was found to be 97900 M⁻¹ s⁻¹.

B9: Mutation 1-18 (antibody, V domains shown)
VH: QVQLQQPGAELVKPGASVRLSCQTSVDTFTTYYIYWVKQRPGEGLEWIGGVNPTSNPVFNEKFKSKATLTVDTSSSTAYMQLSSLTSVDSAVYYCTRSILRRGYYFDYWGQGTALTVSS
VL: DIQMTQTTSSLSASLGDRVTISCRASQDIQNYVNWYQQKPDGTIKLLIYYTSRLQSGIPSRFSGSGSGTDYSLTIANLEQEDIATYFCQQDDTIPVTFGAGTKVELKR
notes: as for B1
For B9, binding was characterised by a dissociation constant (Kd) of 677 pM, the koff was 4.5e-05 s⁻¹ and the kon is 66400 M⁻¹ s⁻¹.

B10: Mutation 1-2 (antibody, V domains shown)
VH: QVQLQQPGAELVKPGASVRLSCQTSVETFSTYYIYWVKQRPGEGLEWIGGLNPTSNPVFNEKFKSKATLTVDTSSSTAYMQLSSLTSVDSAVYYCTRSIIRRGYYFDYWGQGTALTVSS
VL: DIQMTQTTSSLSASLGDRVTISCRASQDIQNYLNWYQQKPDGTIKLLIYYTSRLQSGLPSRFSGSGSGTDYSLTIANLEQEDIATYFCQQDDTIPLTFGAGTKVELKR
notes: as for B1
Turning to B10, the affinity, expressed as Kd, was 285 pM; the dissociation rate constant (koff) was 1.42e-05 s⁻¹; the on-rate constant (kon) amounted to 49700 M⁻¹ s⁻¹.

B11: Mutation 1-5 (antibody, V domains shown)
VH: QVQLQQPGAELVKPGASVRLSCQTSVNTFTTYYIYWVKQRPGEGLEWIGGLNPTSGGPVFNEKFKSKATLTVDTSSSTAYMQLSSLTSVDSAVYYCTRSVIRRGYYFDYWGQGTALTVSS
VL: DIQMTQTTSSLSASLGDRVTISCRASQDINNYINWYQQKPDGTIKLLIYYTSRLHSGLPSRFSGSGSGTDYSLTIANLEQEDIATYFCQQDDTVPLTFGAGTKVELKR
notes: as for B1
With B11, the Kd was determined as 873 pM, the off-rate (koff) was found to be 7.78e-05 s⁻¹ and the kon stood at 89100 M⁻¹ s⁻¹.

B12: Mutation 1-36 (antibody, V domains shown)
VH: QVQLQQPGAELVKPGASVRLSCQTSVETFSTYYIYWVKQRPGEGLEWIGGINPTSNPVFNEKFKSKATLTVDTSSSTAYMQLSSLTSVDSAVYYCTRSILRRGYYFDYWGQGTALTVSS
VL: DIQMTQTTSSLSASLGDRVTISCRASQDIQNYVNWYQQKPDGTIKLLIYYTSRLQSGIPSRFSGSGSGTDYSLTIANLEQEDIATYFCQQDDTIPLTFGAGTKVELKR
notes: as for B1
In turn, B12 had a Kd of 768 pM, an off-rate (koff) of 3.85e-05 s⁻¹ and an association rate constant (kon) of 50200 M⁻¹ s⁻¹.

B13: Mutation 1-10 (antibody, V domains shown)
VH: QVQLQQPGAELVKPGASVRLSCQTSVNTFSTYYIYWVKQRPGEGLEWIGGINPTSGGPVFNEKFKSKATLTVDTSSSTAYMQLSSLTSVDSAVYYCTRSIVRRGYYFDYWGQGTALTVSS
VL: DIQMTQTTSSLSASLGDRVTISCRASQDIQNYINWYQQKPDGTIKLLIYYTSRLQSGVPSRFSGSGSGTDYSLTIANLEQEDIATYFCQQDDTIPITFGAGTKVELKR
notes: as for B1
Molecule B13 yielded a Kd of 384 pM, a koff of 3.76e-05 s⁻¹ and a kon of 98000 M⁻¹ s⁻¹.

B14: Mutation 1-57 (antibody, V domains shown)
VH: QVQLQQPGAELVKPGASVRLSCQTSVETFSTYYIYWVKQRPGEGLEWIGGVNPTSNPVFNEKFKSKATLTVDTSSSTAYMQLSSLTSVDSAVYYCTRSVLRRGYYFDYWGQGTALTVSS
VL: DIQMTQTTSSLSASLGDRVTISCRASQDINNYLNWYQQKPDGTIKLLIYYTSRLQSGVPSRFSGSGSGTDYSLTIANLEQEDIATYFCQQDDTVPVTFGAGTKVELKR
notes: as for B1
In turn, B14 registered a Kd of 362 pM, a koff of 2.49e-05 s⁻¹ and an on-rate constant (kon) of 69000 M⁻¹ s⁻¹.

B15: Mutation 1-28 (antibody, V domains shown)
VH: QVQLQQPGAELVKPGASVRLSCQTSVDTFSTYYIYWVKQRPGEGLEWIGGINPTSNPVFNEKFKSKATLTVDTSSSTAYMQLSSLTSVDSAVYYCTRSIVRRGYYFDYWGQGTALTVSS
VL: DIQMTQTTSSLSASLGDRVTISCRASQDIQNYINWYQQKPDGTIKLLIYYTSRLHSGIPSRFSGSGSGTDYSLTIANLEQEDIATYFCQQDDTIPITFGAGTKVELKR
notes: Mutation 1 background; CDRs built; also called Mutation 148
B15 registered a dissociation constant (Kd) of 402 pM, an off-rate (koff) of 2.61e-05 s⁻¹ and a kon of 65000 M⁻¹ s⁻¹.

B16: Mutation 1-12 (antibody, V domains shown)
VH: QVQLQQPGAELVKPGASVRLSCQTSVDTFSTYYIYWVKQRPGEGLEWIGGVNPTSNPVFNEKFKSKATLTVDTSSSTAYMQLSSLTSVDSAVYYCTRSVLRRGYYFDYWGQGTALTVSS
VL: DIQMTQTTSSLSASLGDRVTISCRASQDIQNYVNWYQQKPDGTIKLLIYYTSRLHSGIPSRFSGSGSGTDYSLTIANLEQEDIATYFCQQDDTVPVTFGAGTKVELKR
notes: as for B1
Molecule B16 came in with a Kd of 22 pM, a koff of 2.05e-06 s⁻¹ and a kon of 93400 M⁻¹ s⁻¹.

B17: Mutation 1-6 (antibody, V domains shown)
VH: QVQLQQPGAELVKPGASVRLSCQTSVDTFSTYYIYWVKQRPGEGLEWIGGVNPTSNPVFNEKFKSKATLTVDTSSSTAYMQLSSLTSVDSAVYYCTRSLLRRGYYFDYWGQGTALTVSS
VL: DIQMTQTTSSLSASLGDRVTISCRASQDIQNYVNWYQQKPDGTIKLLIYYTSRLNSGIPSRFSGSGSGTDYSLTIANLEQEDIATYFCQQDDTLPVTFGAGTKVELKR
notes: as for B1
B17 gave a Kd of 808 pM, a koff of 3.41e-05 s⁻¹ and an on-rate constant (kon) of 42100 M⁻¹ s⁻¹.

B18: Mutation 1-27 (antibody, V domains shown)
VH: QVQLQQPGAELVKPGASVRLSCQTSVNTFTTYYIYWVKQRPGEGLEWIGGVNPTSNPVFNEKFKSKATLTVDTSSSTAYMQLSSLTSVDSAVYYCTRSILRRGYYFDYWGQGTALTVSS
VL: DIQMTQTTSSLSASLGDRVTISCRASQDINNYLNWYQQKPDGTIKLLIYYTSRLQSGIPSRFSGSGSGTDYSLTIANLEQEDIATYFCQQDDTIPVTFGAGTKVELKR
notes: as for B1
As to B18, the dissociation constant Kd stood at 28 pM, the dissociation rate constant (koff) amounted to 2.03e-06 s⁻¹ and the kon was found to be 72400 M⁻¹ s⁻¹.
